Test results from patent publication US20050100551A1.

Assays:
[1] = target: Herceptin; experiment: inhibition ELISA: herceptin preincubated with KLH alone, binding to SKBR3 membranes (Her-2/neu)
[2] = target: Herceptin; experiment: inhibition ELISA: herceptin preincubated with wild-type phage, binding to SKBR3 membranes (Her-2/neu)

Substance | Percent inhibition in comparison to uninhibited herceptin control [1] [%] | Percent inhibition in comparison to uninhibited herceptin control [2] [%]
KLH (from UniProt Q10583 17-3414) | 0 | –
Wild-type phage | – | 3
